Experimental data published in patent publication US20240287172A1 (SCIRHOM, published 2024).

T1: hiR2-FL-H505A-T7 (human, UniProt Q6PJF5 1-856)
T1 sequence: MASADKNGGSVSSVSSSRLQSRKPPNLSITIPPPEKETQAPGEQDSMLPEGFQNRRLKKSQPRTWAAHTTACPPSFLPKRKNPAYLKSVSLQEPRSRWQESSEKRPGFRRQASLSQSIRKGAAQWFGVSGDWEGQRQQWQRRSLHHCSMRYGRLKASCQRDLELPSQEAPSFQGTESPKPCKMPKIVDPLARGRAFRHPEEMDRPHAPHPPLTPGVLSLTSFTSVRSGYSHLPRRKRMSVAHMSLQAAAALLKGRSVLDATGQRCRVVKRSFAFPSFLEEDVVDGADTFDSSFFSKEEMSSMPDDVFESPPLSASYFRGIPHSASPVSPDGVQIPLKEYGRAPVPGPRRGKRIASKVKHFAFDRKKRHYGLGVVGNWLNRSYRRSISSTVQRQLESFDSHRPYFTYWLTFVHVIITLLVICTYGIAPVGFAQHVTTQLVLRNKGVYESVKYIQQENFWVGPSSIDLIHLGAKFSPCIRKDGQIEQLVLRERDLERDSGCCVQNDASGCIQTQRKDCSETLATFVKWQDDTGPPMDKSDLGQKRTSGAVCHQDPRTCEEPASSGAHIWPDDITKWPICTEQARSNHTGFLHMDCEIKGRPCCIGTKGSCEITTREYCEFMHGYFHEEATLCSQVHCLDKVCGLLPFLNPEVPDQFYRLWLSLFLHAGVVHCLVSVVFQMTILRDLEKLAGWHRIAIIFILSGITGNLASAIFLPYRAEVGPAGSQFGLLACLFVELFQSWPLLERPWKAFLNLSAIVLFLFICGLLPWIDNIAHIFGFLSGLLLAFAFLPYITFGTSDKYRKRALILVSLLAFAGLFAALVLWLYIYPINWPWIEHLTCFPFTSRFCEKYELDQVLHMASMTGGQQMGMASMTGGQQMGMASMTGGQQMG

T2: hiR2-FL-P575A-T7 (human, UniProt Q6PJF5 1-856)
T2 sequence: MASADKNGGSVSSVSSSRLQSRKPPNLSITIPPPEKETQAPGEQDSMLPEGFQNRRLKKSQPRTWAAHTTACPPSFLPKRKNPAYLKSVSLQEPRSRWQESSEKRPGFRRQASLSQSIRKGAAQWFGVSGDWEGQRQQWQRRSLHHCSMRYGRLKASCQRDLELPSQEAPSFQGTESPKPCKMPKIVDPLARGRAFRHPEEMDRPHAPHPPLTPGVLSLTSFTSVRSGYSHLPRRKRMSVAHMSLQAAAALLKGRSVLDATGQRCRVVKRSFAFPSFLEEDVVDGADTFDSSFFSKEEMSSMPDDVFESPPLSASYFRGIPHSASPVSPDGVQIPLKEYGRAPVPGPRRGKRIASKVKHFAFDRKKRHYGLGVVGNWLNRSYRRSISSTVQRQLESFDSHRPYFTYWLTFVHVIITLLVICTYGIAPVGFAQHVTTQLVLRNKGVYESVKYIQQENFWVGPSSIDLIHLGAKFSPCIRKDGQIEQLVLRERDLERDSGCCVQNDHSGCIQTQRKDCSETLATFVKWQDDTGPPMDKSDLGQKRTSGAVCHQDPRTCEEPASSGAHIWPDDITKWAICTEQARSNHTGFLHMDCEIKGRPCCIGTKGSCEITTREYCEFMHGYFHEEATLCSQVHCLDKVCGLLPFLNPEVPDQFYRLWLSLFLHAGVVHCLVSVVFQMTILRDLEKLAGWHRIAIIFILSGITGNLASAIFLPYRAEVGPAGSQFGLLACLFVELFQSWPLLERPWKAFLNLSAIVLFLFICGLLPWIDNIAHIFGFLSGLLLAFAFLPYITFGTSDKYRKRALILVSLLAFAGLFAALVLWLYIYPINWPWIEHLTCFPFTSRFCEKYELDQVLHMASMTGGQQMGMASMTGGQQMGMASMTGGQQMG


How the values were obtained:
hiR2-FL-H505A-T7 = molecular target: T1, hiR2-FL-H505A-T7; assay: FACS on MEF-DKO cells expressing the variant, 3 µg/ml antibody
In short: (§1)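 Pelleted cells are resuspended in antibody at 3 μg/ml and kept on ice 1 hour, washed, then incubated with PE goat anti-mouse IgG F(ab′)2 diluted 1:100 on ice for 1 hour protected from light, washed again and analysed by flow cytometry.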

hiR2-FL-P575A-T7 = molecular target: T2, hiR2-FL-P575A-T7; assay: as above
In short: as §1

Binder	loss of binding vs wild type (hiR2-FL-H505A-T7)	loss of binding vs wild type (hiR2-FL-P575A-T7)
antibody 50 (antibody, V domains shown, mouse IgG, kappa light chain; also called clone #50; purified antibody 50) VH: QVQLQQSGAELVRPGASVKVSCKASGYAFSNYLIEWVKQRPGQGLEWIGVINPGSGFTKYNEKFKGKATLTADKSSSTAYMQLSSLTSEDSAVYFCARGLYRAMDYWGQGTSVTVSS VL: DIQMTQSPASQSASLGESVTITCLASQTIGTWLAWYQQKPGKSPQLLIYAAASLADGVPSRFSGGGSGTKFSFKISSLQAEDFVNYYCQQIYSTPYTFGGGTKLEIK	≥ 30%	
antibody 3 (antibody, V domains shown, mouse IgG, kappa light chain; also called clone #3; purified antibody 3) VH: QVTLKESGPGILQPSQTLSLTCSFSGFSLTTFAMGIGWVRQPSGKGLEWLAHIWWDGEKYNNPVLKSRLTISKDTSKNQVFLRIANVDTPDTATYYCARISSIYYIIDNWGQGTSVTVSS VL: DIVLTQSPATLSVTPGHSVSLSCRASQSISNNLHWYQKKSHESPRLLIKYVSQSISGIPSRFSGSGSGTDFTLSINSVETEDFGMYFCQQSYNWPLTFGAGTKLELK		≥ 30%
